Like-named read-outs stand apart in the source and are kept apart here.
Tests used:
[1] = target: wt^Sd (Scalloped residues 223-440), N-biotinylated-Avitagged (Drosophila melanogaster) (UniProt P30052); assay: SPR
[2] = target: TEAD4 (recombinant protein of the TR-FRET and SPR assays) (human); assay: AlphaScreen or HTRF
[3] = target: N-terminally V5-tagged Asp272Ala^TEAD4 (full length) (human) (UniProt Q15561); assay: co-IP
[4] = target: TEAD4 (recombinant protein of the TR-FRET and SPR assays) (human); assay: SPR
[5] = target: TEAD4 (recombinant protein of the TR-FRET and SPR assays) (human); assay: SPR; remark: listed apart in the source

wt^Sd (Scalloped residues 223-440), N-biotinylated-Avitagged (Drosophila melanogaster), sequence (P30052 223-440): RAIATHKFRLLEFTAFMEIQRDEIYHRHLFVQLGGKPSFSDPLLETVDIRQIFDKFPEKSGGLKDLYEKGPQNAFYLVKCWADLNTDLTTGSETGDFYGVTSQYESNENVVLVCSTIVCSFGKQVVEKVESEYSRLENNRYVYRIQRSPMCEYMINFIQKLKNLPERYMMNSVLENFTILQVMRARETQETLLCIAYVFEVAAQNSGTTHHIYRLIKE
N-terminally V5-tagged Asp272Ala^TEAD4 (full length) (human), sequence (Q15561 whole entry D272A): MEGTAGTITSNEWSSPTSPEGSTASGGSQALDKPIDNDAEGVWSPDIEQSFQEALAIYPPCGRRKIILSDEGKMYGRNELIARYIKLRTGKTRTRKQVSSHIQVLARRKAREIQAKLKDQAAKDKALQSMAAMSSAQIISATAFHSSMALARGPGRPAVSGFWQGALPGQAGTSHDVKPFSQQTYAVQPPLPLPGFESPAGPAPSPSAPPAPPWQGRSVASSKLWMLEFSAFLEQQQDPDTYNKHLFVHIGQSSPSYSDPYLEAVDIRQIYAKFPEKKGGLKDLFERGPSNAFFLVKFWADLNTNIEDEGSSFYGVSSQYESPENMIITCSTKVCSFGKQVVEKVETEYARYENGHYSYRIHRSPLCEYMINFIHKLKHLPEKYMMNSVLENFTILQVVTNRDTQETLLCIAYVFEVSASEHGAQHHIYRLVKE

IC50 [2] [µM] | Kd [4] [nM] | Molecule | further results
 | 34 | VGLL2^85-149 (β-strand:α-helix:Ω-loop of human VGLL2) (peptide) peptide: Ac-CVLFTYFQGDISSVVDEHFSRALSQPSSYSPSCTSSKAPRSSGPWRDCSFPMSQRSFPASFWNSA-NH2 | 
 | 4.1 | Ac-CVVFTNYSGDTASQVDEHFSRALNYNNKDSKESSSPMSNRNFPPSFWNSN-NH2 [Vg^288-337 (TONDU domain and Ω-loop of Vestigial)] | Kd [5]: 3.1 nM
157 |  | Ac-PMSNRNFPPSFWNSN-NH2 [Vg^323-337 (Ω-loop of Vestigial)] | 
 | 590 | Ac-CVLFTYFQGDISSVVDEHFSRALS-NH2 [VGLL2^85-108 (β-strand:α-helix of human VGLL2)] | 

The remaining lines, values behind:

Molecule | IC50 [2] [µM] | Kd [4] [nM] | further results
Vg^298-337 (Vestigial Sd-binding domain without the putative β-strand) (from UniProt Q26366 298-337) (peptide) |  |  | Kd [1]: 61 nM
YAP^85-99 (Ω-loop of YAP) (from UniProt P46937 85-99) (peptide) | 98 |  | 
VGLL3^140-154 (region of human VGLL3 aligned with the Ω-loop of Vg) (from UniProt A8MV65 140-154) (peptide) | > 500 |  | 
(FLAG)3-delΩ^VGLL2 (full-length VGLL2 with the Ω-loop deleted) (from UniProt Q8N8G2-1 1-317) (natural protein) |  |  | fold reduction of co-IP (IP over input) against wt^TEAD4 with wt^VGLL2 [3]: 2 fold
Ac-PMSQRSFPASFWNSA-NH2 [VGLL2^135-149 (Ω-loop region of human VGLL2)] | 133 |  | 
